Assay results published in the supplement of paper PMC10567573.

B1: FCHO1 (parent)
chain: HLELTRKLQDLIKDVLRYGEEQLK
B2: ZNF232 (parent)
chain: HSGEKPFICKECGKAYGWCSELIR

Variants of: B1
Experiment: protein stability index of a GFP-peptide fusion (GPS, HEK-293T) (PSI 1-6); higher = more stable
Conditions: c terminus: a fixed tail appended
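Also: lentivirally expressed fusions sorted by FACS into six bins by GFP to DsRed ratio, PSI derived from sequencing read proportions per bin multiplied by bin number.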

Protein stability index, by site and new letter:
D10: E 3.03, P 1.99, Y 4.45, C 3.93
D14: E 2.9, H 3.31, R 3.44, P 2.97, L 1.99, Q 4.72, M 1.3
L23: Q 2.06, P 1.73, Y 2.29, I 3.49
L11: R 1.2, Q 2.47, F 3.54, I 3.17, M 3.68, S 2.67
L8: G 2.46, Q 3.3, K 2.74, E 3.62, I 4.57, W 1.36, V 1.97, M 1.45
Q22: G 2.62, C 1.59, R 3.19
L16: P 2.9, G 2.61, E 3.18, Y 1.93, T 2.25, A 1.04, N 2.82, H 2.73
E21: H 2.76, I 3.67, T 2.8
T5: K 5.01, M 3.28
E3: Y 2.52, W 2.83, R 2.74, V 2.56, N 3.5, D 2.84
K13: D 2.06, Y 1.33, V 2.29, E 2.37
H1: F 1.99
G19: N 2.18, Y 1.75, W 3.49, A 2.5, F 2.83, D 2.09
Y18: L 2.53, G 1.83, R 2.27, M 2.65, E 1.77, T 1.88, V 3.06, K 3.41, F 2.25, P 2.42
V15: P 2.27, D 4.22, N 2.98, E 3.18, R 2.74, K 1.87, A 2.98
L2: W 1.41, N 2.76, V 3.29, A 2.42, R 2.11, F 1.95, I 1.87
E20: I 3.44, G 2.66, P 2.51, D 3.65
I12: C 1.73, S 2.51, Q 3.4, E 3.82, F 2.57, P 3.65, T 2.31
L4: Q 2.58, S 2.76, M 2.21, T 1.55, G 2.02
R6: K 2.69, W 2.34, A 1.45, Q 1.86, D 1.84
Q9: W 2.68, A 2.81, H 1.65, F 2.25, Y 3.31, P 2.81, V 2.56
K7: R 2.78, T 2.96, Q 2.28, E 2.28, L 3.41, P 1.51, W 1.87, G 2.68, F 2.12, M 3.46
K24: M 2.79, I 2.67, F 2.05, N 3.69, E 1.44
R17: E 1.76, N 2.64, L 2.88, T 1.54, D 1.73, V 2.61, Y 2.08, H 3.28, Q 2.26

Variants of: B2
Experiment: as above
Conditions: c terminus: a fixed tail appended

Protein stability index: each site, then its substitutions
Y16: C 2.5, M 1.94, V 1.54, E 1.75, N 1.88, T 2.49, G 1.93, F 1.6, L 1.25, W 2.1, I 2.06, S 1.99, P 1.61, H 3.04, Q 2.33, R 2.06, K 2.11, D 2.16, A 1.58
S20: F 2.11, A 2.34, R 3.24, M 1.75, H 2.33, E 2.07, Y 1.7, Q 1.98, C 2.96, G 1.96, L 1.39, P 1.87, T 2.11, V 2, N 2.1, I 2.17, D 1.72, W 1.77, K 2.2
A15: F 1.92, P 2.29, E 1.81, V 2.01, N 1.83, W 1.75, L 1.49, H 1.89, Q 2.11, M 1.9, T 2.05, G 1.45, D 1.69, Y 1.85, S 2.14, I 2.34, C 2.76, R 2.14, K 1.69
G17: Q 2.2, D 2.2, Y 2.24, S 1.8, A 1.84, R 1.65, M 2.2, W 2.2, E 1.82, V 1.52, H 2.09, I 2.51, P 2.54, K 1.6, T 1.56, L 1.82, N 1.38, C 3.39, F 1.97
C19: R 1.73, W 1.37, Q 2.39, V 1.68, F 1.69, D 1.94, H 1.82, K 2.08, E 2.5, M 2.13, G 1.89, A 2.06, T 2.09, I 1.89, S 2.83, N 2.08, L 1.69, P 2.03, Y 1.54
R24: H 3.51, P 2.66, K 2.08, C 4.05, E 2.33, M 1.74, W 2.09, A 1.86, S 2.23, F 2.23, G 1.45, T 2.32, Q 2.44, N 2.03, L 1.71, I 1.99, Y 1.61, D 2.85, V 2.02
K14: V 1.71, W 2.68, S 1.7, T 2.24, R 1.61, Y 1.98
W18: T 1.83, V 2.25, H 2.28, Y 1.79, S 2.67, P 1.81, E 2.95, F 1.55, R 1.9, Q 2.49, G 2.43, A 1.85, I 2.46, N 2.03, M 2.57, C 2.18, K 1.78, D 2.67, L 2.09
E21: C 2.8, K 2.26, P 2.5, D 1.86, T 2.3, H 3.87, F 1.92, A 2.27, R 1.99, S 1.21, I 2.07, L 2.2, Y 2.12, G 2.18, N 1.38, M 2.07, Q 2.31, V 2.84, W 2.11
I23: N 1.97, V 1.97, H 2.71, R 2, D 2.5, P 2.28, A 2.04, M 1.97, Y 1.82, S 1.78, W 2.3, Q 2.58, L 2.31, T 1.89, C 3.64, E 2.24, G 2.09, F 1.98, K 2.45
L22: G 2, F 1.94, D 2.3, V 2.09, Q 1.65, S 1.92, E 2.11, A 2.24, Y 2.18, M 2.08, W 1.67, I 1.73, C 4.76, H 3.29, T 1.72, N 1.81, P 3.26, K 1.96, R 2.08
